Assay results reported in patent US20230075753A1 (UCB, published 2023).
Changes are numbered by the printed parent chain. Values joined by “and” are separate entries in the source; they are usually repeats but may differ in a detail not shown here. Equal values may be shown once. Blank lines part the entries; values can stand above or below the binder they belong to.

What was measured:
Active human KLK5 [1] = molecular target: T1, Active human KLK5 (human, UniProt Q9Y337 67-293); experiment: SPR; antibody 10236 gL6gH12 captured on anti-human Fc and loaded with human KLK5, LEKTI D5 Fab fusion injected, 1:1 model; KLK5 in complex with 10236 gL6gH12; KLK5 already in complex with antibody 10236 gL6gH12
T1 construct: glycosylated; also called Hu KLK5; KLK5 analyte (prepared in house)
Procedure: (§1) The experimental conditions described in example 5 were used with the exception that an anti-human Fc chip surface was prepared, and the results are reported in Table 6.

Active human KLK5 [2] = molecular target: T1, Active human KLK5; experiment: SPR, Biacore; rabbit antibody 10236 captured on anti-rabbit Fc and saturated with 20 nM human KLK5, LEKTI D5 Fab fusion injected 30 pM-100 nM, 1:1 model; KLK5 in complex with 10236
Procedure: 20 nM of human KLK5 was then injected until the surface reached saturation. LEKTI D5 Fab fusion protein (generated as described in example 1) was then injected at concentrations between 30 pM and 100 nM. Values from buffer only injections were first subtracted from those obtained with the analytes before fitting to a 1:1 binding kinetic model in Biacore™ evaluation software (GE Life Sciences™)

Active human KLK5 [3] = molecular target: T1, Active human KLK5; experiment: SPR, Biacore T200; LEKTI D5 Fab fusion immobilised on CM5 chip, human KLK5 injected 0.32-32 nM, single cycle kinetics, 1:1 model
Procedure: (§2) Kinetic measurements for the binding of LEKTI D5 Fab fusion protein to human KLK5 were obtained using a Biacore T200 (GE Life Sciences™). To prepare the surface, CM5 chips (GE Life Sciences™) were first activated with a 5-minute injection (30 μL min⁻¹) of a mixture of EDC/NHS (GE Life Sciences™) followed by injection of 100 μg mL⁻¹ LEKTI D5 Fab fusion (UCB) in acetate buffer, pH 5.0 (GE Life Sciences™) to achieve 80 RU immobilised LEKTI D5 Fab fusion on the chip surface. Finally, an injection of 1 M Ethanolamine hydrochloride-NaOH pH 8.5 was utilised to deactivate the surface. Increasing concentrations of human KLK5 from 0.32 to 32 nM in HBS-EP buffer (GE Life Sciences™) were then injected in the single cycle kinetics mode. Values resulting from buffer only injections were subtracted from those obtained for the KLK5 injections and kinetics determined by fitting to a 1:1 binding model in BIAcore evaluation software (GE Life Sciences™)
(§3) As reference, LEKTI D5 Fab fusion protein was immobilised to the chip surface prior to monitoring the interaction with human KLK5.

Active human KLK5 [4] = molecular target: T1, Active human KLK5; experiment: SPR; LEKTI D5 Fab fusion immobilised, human KLK5 injected; reference row, same values as Table 4A
Procedure: as §2, §3

Active human KLK5 [5] = molecular target: T1, Active human KLK5; experiment: SPR, Biacore T200; LEKTI D5 Fab fusion immobilised on CM5 chip, human KLK5 injected 0.32-32 nM, single cycle kinetics, 1:1 model; human KLK5 alone, no antibody 10236; LEKTI D5 Fab fusion immobilised on the chip
Procedure: as §2, §3

Active human KLK5 [6] = molecular target: T1, Active human KLK5; experiment: SPR; antibody 10236 gL6gH12 captured on anti-human Fc and loaded with human KLK5, LEKTI D5 Fab fusion injected, 1:1 model; KLK5 in complex with 10236 gL6gH12
Procedure: as §1

Active human KLK5 [7] = molecular target: T1, Active human KLK5; experiment: SPR, Biacore T200, 25 C; IgG captured on anti-human Fc, human KLK5 as analyte (20-0.03 nM), 1:1 model
Procedure: The kinetics of binding of both antibodies 10236gL6gH12 and 10236gL6-N94DgH12 to human KLK5 were assessed by surface plasmon resonance (Biacore T200, GE Life Sciences™) at 25° C. to assess the impact of 100% deamidation.
(§4) A goat anti-human IgG Fc specific antibody (Jackson ImmunoResearch) was immobilized on a CM5 Sensor Chip via amine coupling chemistry to a level of approximately 6000RU. Each analysis cycle consisted of capture of the anti-KLK5 IgG molecules to the anti Fc surface, injection of KLK5 analyte (prepared in house) for 300 s at 30 μl/min followed by 600 s dissociation. At the end of each cycle the surface was regenerated at a flowrate of 10 μL/min using a 60 s injection of 50 mM HCl followed by a 30 s injection of 5 mM NaOH and a final 60 s injection of 50 mM HCl. Human KLK5 was titrated from 20 nM to 0.03 nM (6×3-fold serial dilutions) in HBS-EP+ running buffer (GE Healthcare) supplemented to a final concentration of 300 mM NaCl. Buffer blank injections were included to subtract instrument noise and drift. Kinetic parameters were determined using a 1:1 binding model using Biacore T200 Evaluation software (version 3.0).

Active human KLK5 [8] = molecular target: T1, Active human KLK5; experiment: SPR, Biacore T200, 25 C; reference 10236gL6gH12
Procedure: as §4

Active cyno KLK5 = molecular target: T2, Active cyno KLK5 (cynomolgus monkey, UniProt Q9Y337 67-293 (human entry)); experiment: cell-based or functional assay
T2 chain: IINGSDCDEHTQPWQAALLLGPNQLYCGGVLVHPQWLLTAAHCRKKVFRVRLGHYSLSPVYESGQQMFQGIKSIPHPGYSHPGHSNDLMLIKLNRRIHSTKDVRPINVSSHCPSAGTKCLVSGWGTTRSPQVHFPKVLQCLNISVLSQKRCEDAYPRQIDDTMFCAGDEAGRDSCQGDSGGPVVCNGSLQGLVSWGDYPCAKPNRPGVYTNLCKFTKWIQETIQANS

Active human KLK5 [9] = molecular target: T1, Active human KLK5; experiment: SPR, Biacore T200, 25 C; IgG from supernatant captured on anti-human Fc, human KLK5 as analyte (20-0.08 nM), 1:1 model
Procedure: A goat anti-human IgG Fc specific antibody (Jackson ImmunoResearch) was immobilized on a CM5 Sensor Chip via amine coupling chemistry to a level of approximately 6000RU. Each analysis cycle consisted of capture of the anti-KLK5 IgG from supernatants to the anti Fc surface, injection of KLK5 analyte (prepared in house) for 180 s at 30 μl/min followed by 600 s dissociation. At the end of each cycle the surface was regenerated at a flowrate of 10 μL/min using a 60 s injection of 50 mM HCl followed by a 30 s injection of 5 mM NaOH and a final 60 s injection of 50 mM HCl. Human KLK5 was titrated from 20 nM to 0.08 nM (5×3-fold serial dilutions) for the supernatant in HBS-EP+ running buffer (GE Healthcare®) supplemented to a final concentration of 300 mM NaCl. Buffer blank injections were included to subtract instrument noise and drift. Kinetic parameters were determined using a 1:1 binding model using Biacore T200 Evaluation software (version 3.0). Experiments were carried out at 25° C.

Active human KLK5 [10] = molecular target: T1, Active human KLK5; experiment: SPR; average of the 2 runs of Table 15

Kd (Active human KLK5 [1]): 540 nM | Kd (Active human KLK5 [2]): 120 nM | koff (Active human KLK5 [2]): 0.0073 s⁻¹ | kon (Active human KLK5 [2]): 59000 M⁻¹ s⁻¹ | koff (Active human KLK5 [3]): 2.3e-05 s⁻¹ | kon (Active human KLK5 [3]): 570000 M⁻¹ s⁻¹ | koff (Active human KLK5 [4]): 2.3e-05 s⁻¹ | kon (Active human KLK5 [4]): 570000 M⁻¹ s⁻¹ | Kd (Active human KLK5 [5]): 0.04 nM | koff (Active human KLK5 [6]): 0.0016 s⁻¹
B1: LEKTI D5 Fab fusion protein (other)
heavy: EVQLLESGGGLVQPGGSLRLSCAVSGIDLSNYAINWVRQAPGKGLEWIGIIWASGTTFYATWAKGRFTISRDNSGGGGSGGGGSREIVKLCSQYQNQAKNGILFCTRENDPIRGPDGKMHGNLCSMCQAYFQAENEEKKKAEARARSGGGGGGGGSKNTVYLQMNSLRAEDTAVYYCARTVPGYSTAPYFDLWGQGTLVTVSSASTKGPSVFPLAPSSKSTSGGTAALGCLVKDYFPEPVTVSWNSGALTSGVHTFPAVLQSSGLYSLSSVVTVPSSSLGTQTYICNVNHKPSNTKVDKKVEPKSCHHHHHHHHHH
light: DIQMTQSPSSVSASVGDRVTITCQSSPSVWSNFLSWYQQKPGKAPKLLIYEASKLTSGVPSRFSGSGSGTDFTLTISSLQPEDFATYYCGGGYSSISDTTFGGGTKVEIKRTVAAPSVFIFPPSDEQLKSGTASVVCLLNNFYPREAKVQWKVDNALQSGNSQESVTEQDSKDSTYSLSSTLTLSKADYEKHKVYACEVTHQGLSSPVTKSFNRGEC
notes: the Fab itself is specific for albumin; also called Human LEKTI D5 Fab fusion protein

Kd (Active human KLK5 [7]): 1.25 nM | koff (Active human KLK5 [7]): 0.00486 s⁻¹ | kon (Active human KLK5 [7]): 3.89e+06 M⁻¹ s⁻¹ | fold decrease of affinity against 10236gL6gH12 (Active human KLK5 [8]): 4.5 fold
B2: Antibody 10236 gL6-N94DgH12 (IgG4P) (antibody, V domains shown)
VH: EVQLQESGPGLVKPSGTLSLTCAVSGFPLSNYAMSWVRQPPGKGLEWIGDIYPSDIIDYASWAKGRVTISQDSSKNQVSLKLSSVTAADTAVYYCARDNNDYGLDIWGQGTLVTVSS
VL: AYDMTQSPSSLSASVGDRVTITCQASQSISSWLAWYQQKPGKAPKLLIYLASTLASGVPSRFSGSGSGTDFTLTISSLQPEDFATYYCQQGYTDSNIINTFGGGTKVEIKR
notes: surrogate for the fully deamidated product of 10236gL6gH12

IC50 (read off the curve) (Active cyno KLK5): ~0.1 nM | Kd (Active human KLK5 [9]): 0.324 nM | koff (Active human KLK5 [9]): 0.00066 s⁻¹ | kon (Active human KLK5 [9]): 2.04e+06 M⁻¹ s⁻¹ | Kd (Active human KLK5 [10]): 0.299 nM | Kd (Active human KLK5 [7]): 0.314 nM and 0.283 nM | koff (Active human KLK5 [7]): 0.000711 s⁻¹ and 0.000658 s⁻¹ | kon (Active human KLK5 [7]): 2.26e+06 M⁻¹ s⁻¹ and 2.33e+06 M⁻¹ s⁻¹
B3: Humanized antibody 10236 gL6gH12 (antibody, V domains shown)
VH: B2 VH
VL: B2 VL with D94N
notes: also called Ab10236gL6gH12
